Experimental data published in US20140294846.
Read-outs that look alike come from different tables or passages of the source.

B1: full-length mouse ADAMTS-1, v5-epitope tagged (wild type) (protein)
chain: ARGAHGRPTEEDEELVLPSLERAPGHDSTTTRLRLDAFGQQLHLKLQPDSGFLAPGFTLQTVGRSPGSEAQHLDPTGDLAHCFYSGTVNGDPGSAAALSLCEGVRGAFYLQGEEFFIQPAPGVATERLAPAVPEEESSARPQFHILRRRRRGSGGAKCGVMDDETLPTSDSRPESQNTRNQWPVRDPTPQDAGKPSGPGSIRKKRFVSSPRYVETMLVADQSMADFHGSGLKHYLLTLFSVAARFYKHPSIRNSISLVVVKILVIYEEQKGPEVTSNAALTLRNFCSWQKQHNSPSDRDPEHYDTAILFTRQDLCGSHTCDTLGMADVGTVCDPSRSCSVIEDDGLQAAFTTAHELGHVFNMPHDDAKHCASLNGVSGDSHLMASMLSSLDHSQPWSPCSAYMVTSFLDNGHGECLMDKPQNPIKLPSDLPGTLYDANRQCQFTFGEESKHCPDAASTCTTLWCTGTSGGLLVCQTKHFPWADGTSCGEGKWCVSGKCVNKTDMKHFATPVHGSWGPWGPWGDCSRTCGGGVQYTMRECDNPVPKNGGKYCEGKRVRYRSCNIEDCPDNNGKTFREEQCEAHNEFSKASFGNEPTVEWTPKYAGVSPKDRCKLTCEAKGIGYFFVLQPKVVDGTPCSPDSTSVCVQGQCVKAGCDRIIDSKKKFDKCGVCGGNGSTCKKMSGIVTSTRPGYHDIVTIPAGATNIEVKHRNQRGSRNNGSFLAIRAADGTYILNGNFTLSTLEQDLTYKGTVLRYSGSSAALERIRSFSPLKEPLTIQVLMVGHALRPKIKFTYFMKKKTESFNAIPTFSEWVIEEWGECSKTCGSGWQRRVVQCRDINGHPASECAKEVKPASTRPCADLPCPHWQVGDWSPCSKTCGKGYKKRTLKCVSHDGGVLSNESCDPLKKPKHYIDFCTLTQCS

What was measured:
[1] = system: versican in the ECM materials deposited by TA3 transfectants
[2] = target: P97857
[3] = target: versican in the ECM materials deposited by TA3 transfectants; remark: listed apart in the source

Molecule | degradation of versican in ECM of TA3 transfectants (Western blot, anti-DP antibody) [1] | auto-proteolytic cleavage of purified ADAMTS-1 in vitro (Western blot, anti-v5) [2] | degradation of versican in ECM of TA3 transfectants (Western blot, anti-DP antibody) [3]
ADAMTS-1E/Q, protease-dead mutant of mouse ADAMTS-1 (E386 to Q), v5-epitope tagged | expression of ADAMTS-1E/Q but not ADAMTS-1NTF, ADAMTS-1CTF inhibits the degradation |  | 
B1 |  | ADAMTS-1 was auto-proteolytically cleaved to release v5-epitope tagged C-terminal cleavage fragments | increased expression of exogenous ADAMTS-1 but not ADAMTS-1minusTSP-1 on top of the endogenous ADAMTS-1 promotes degradation of versican
